Data as given in patent publication US20250314646, “SYSTEMS AND METHODS FOR ANALYTE DETECTION IN BIOLOGICAL SOLUTIONS” (eGlint, Inc., published 2025).

B1: 41T aptamer (surface-immobilized, FIG. 4B) (ssDNA)
DNA: TTTTTTACTCAGGGCACTGCAAGCAATTGTGGTCCCAATGGGCTGAGTA
modifications: 5' DBCO-TEG via five-thymidine linker, thymine-linked Black Hole Quencher 2
B2: 41T aptamer (solution, FIG. 4A) (ssDNA)
DNA: TACTCAGGGCACTGCAAGCAATTGTGGTCCCAATGGGCTGAGTA

Assays:
[1] = biological target: T1, PDGF-BB (UniProt P01127 P01127:82-190); experiment: surface thermal melt; Tm about 32 C unbound to about 42 C bound; 0.75 mg/mL HSA, 40% DMSO; also bound peak about 55 C with 100 nM in human plasma without DMSO; settings: chain copies: 2 (homodimer, inferred); label: 3' Cy3
T1 sequence (P01127 82-190, one chain of several): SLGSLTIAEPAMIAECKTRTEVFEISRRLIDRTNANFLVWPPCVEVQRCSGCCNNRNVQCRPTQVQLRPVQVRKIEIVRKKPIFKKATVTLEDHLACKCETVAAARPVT
Experimental: (§1) PDGF-BB and PDGF-AA were obtained from R&D Systems (Minneapolis, USA). Human serum albumine (HSA), phosphate buffered saline (PBS) and all other reagents were ordered from Sigma-Millipore. The aptamer was covalently linked to the solid support by spotting 4.5 μL of the 0.25 uM aptamer solution in 1× PBS buffer. The spots were incubated for 10 minutes to allow for surface immobilization and washed with 1× PBS buffer. Solutions with a variable amount of PDGF-BB or PDGF-AA (630 nM to 2 nM 3.16× dilution series or 300 nM to 75 nM 2× dilution series, respectively) and containing 0.75 mg/mL. HSA, 40% DMSO (v/v) were applied to the surface coated with the aptamers and incubated for 5 minutes at room temperature. The temperature was increased to 45° C. by placing the slide on a heating element. The change in fluorescence intensity of the modified aptamer was as a function of temperature was monitored by fluorescence microscope coupled to a CMOS sensor. FIGS. 9A and 10 presents normalized first derivative of the melting curves for PDGF-BB or PDGF-AA titration experiments, respectively. […]

[2] = biological target: PDGF-AA (UniProt P04085 P04085:87-211); experiment: surface thermal melt, 75-300 nM PDGF-AA; no binding and no dose response; 0.75 mg/mL HSA, 40% DMSO; settings: tags: R&D Systems; chain copies: 2 (homodimer, inferred); label: 3' Cy3
Experimental: as §1, with “The solid support consisted of coated ITO glass slides functionalized with azido groups (Sikemia, Grabels, France) to form a covalent bond between the DBCO-labeled aptamer and the surface. PDGF-BB and” for “PDGF-BB and”

[3] = biological target: T1, PDGF-BB; experiment: fluorescence thermal melt in solution; Tm about 55 C unbound to about 65 C bound; 1x PBS, 1 mM MgCl2, 0.1 mg/ml BSA; settings: chain copies: 2 (homodimer, inferred); label: 5' fluorescein, 3' Black Hole Quencher 1
Experimental: In one representative experiment, aptamer comprising a competent binding state and a dye pair (fluoresceine and black hole quencher) was measured for their persistence in the changed environment of temperature as described herein. […] PDGF-BB, bovine serum albumine (BSA), magnesium chrolide, and phosphate buffered saline (PBS) all other buffers were ordered from Sigma-Millipore. 41T aptamer at a concentration of either 316 nM, or 100 nM, or 31.6 nM, or 10 nM were mixed with variable concentrations PDGF-BB (from […] dilution factor) in 1× PBS containing 1 mM MgCl₂, and 0.1 mg/ml BSA on white 384 well PCR plate (BioRad) and subjected to the following thermal protocol on BioRad CFX384 qPCR instrument: lid at 95° C., melting curve step from 30° C. to 80° C. with images (FAM/SYBR channel) every 0.5° C., 10 seconds per step. FIG. 5 presents melting curves (left panels) and the first derivative (right panels) of thermal titration experiments. To estimate the relative populations of free aptamers and aptamers bound to the target (% bound), the areas under the curve of the first derivative (dRFU/dT) were integrated for both unbound (left peak with Tₘ˜55° C.) and bound (right peak with Tₘ˜65° C.) peaks. % bound as a function of the target concentration is presented as a dose response in FIG. 6.

Binder | binding result [1] | binding result [2] | binding result [3]
B1 | binds | no binding | –
B2 | – | – | binds
